Residue numbers refer to the chain shown, from its start.
T1: IL-2R on human primary T cells (human, UniProt P01589 22-272; P14784 27-551; P31785 23-369)
T1 sequence (looked up) 1: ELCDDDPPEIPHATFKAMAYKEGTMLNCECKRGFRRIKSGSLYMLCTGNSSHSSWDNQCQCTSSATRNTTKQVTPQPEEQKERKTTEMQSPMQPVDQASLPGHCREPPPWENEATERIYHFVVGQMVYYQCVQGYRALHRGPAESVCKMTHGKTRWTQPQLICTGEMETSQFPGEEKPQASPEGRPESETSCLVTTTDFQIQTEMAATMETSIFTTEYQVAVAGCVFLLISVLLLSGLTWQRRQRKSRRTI
T1 sequence (looked up) 2: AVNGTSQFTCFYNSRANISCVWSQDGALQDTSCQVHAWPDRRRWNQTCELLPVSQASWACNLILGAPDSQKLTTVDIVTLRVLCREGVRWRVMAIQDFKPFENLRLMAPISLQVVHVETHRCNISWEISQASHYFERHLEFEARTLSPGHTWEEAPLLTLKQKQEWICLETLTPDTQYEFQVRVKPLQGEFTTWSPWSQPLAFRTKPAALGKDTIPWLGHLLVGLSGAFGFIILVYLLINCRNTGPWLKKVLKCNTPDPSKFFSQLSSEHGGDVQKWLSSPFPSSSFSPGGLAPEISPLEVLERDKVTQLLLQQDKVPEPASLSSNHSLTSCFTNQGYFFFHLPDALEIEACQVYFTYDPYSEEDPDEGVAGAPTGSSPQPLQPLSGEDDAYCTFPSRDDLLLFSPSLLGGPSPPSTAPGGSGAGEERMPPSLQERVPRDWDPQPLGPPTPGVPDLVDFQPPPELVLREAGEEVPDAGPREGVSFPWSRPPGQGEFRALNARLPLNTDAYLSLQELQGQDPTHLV
T1 sequence (looked up) 3: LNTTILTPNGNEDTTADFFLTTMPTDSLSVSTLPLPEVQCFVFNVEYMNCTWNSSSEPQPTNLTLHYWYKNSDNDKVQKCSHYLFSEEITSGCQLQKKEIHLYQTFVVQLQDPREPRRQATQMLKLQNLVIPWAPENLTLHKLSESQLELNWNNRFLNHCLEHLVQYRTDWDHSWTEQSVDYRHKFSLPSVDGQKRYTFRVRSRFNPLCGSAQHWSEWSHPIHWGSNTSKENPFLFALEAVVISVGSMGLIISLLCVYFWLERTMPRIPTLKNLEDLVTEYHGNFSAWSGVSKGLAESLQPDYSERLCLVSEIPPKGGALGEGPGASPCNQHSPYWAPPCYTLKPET

B1: SEQ ID NO 25 (ligand)
chain: APTSSSTKKTQLQLEHLLLDLQMILNGINNHKNPRLTRMLTFKFYMPKKATELKHLQCLEEELKPLEEALRLAPSKNFHLRPRDLISNINVIVLELKGSETTFMCEYADETATIVEFLNRWITFSTSIISTLT
B2: SEQ ID NO 29 (ligand)
chain: B1 chain with A69V, R71N
B3: SEQ ID NO 10 (ligand)
chain: B1 chain with N29S, T37A, K48E, N88D, I89V
B4: SEQ ID NO 27 (ligand)
chain: B1 chain with A69V
B5: SEQ ID NO 31 (ligand)
chain: B1 chain with H31Y, R35K, R71N, N88D, T126Q
B6: SEQ ID NO 30 (ligand)
chain: B1 chain with R35K, R71N, N88D, T126Q
B7: SEQ ID NO 26 (ligand)
chain: B1 chain with A69V, N88D, T126Q
B8: SEQ ID NO 28 (ligand)
chain: B1 chain with A69V, R71N, N88D, T126Q
B9: SEQ ID NO 33 (ligand)
chain: B1 chain with H31Y, R35K, A69V, R71N, N88D, T126Q
B10: SEQ ID NO 32 (ligand)
chain: B1 chain with H31Y, R35K, R71N, P74Q, N88D, T126Q

target: T1, IL-2R on human primary T cells; experiment: cell-based or functional assay

| Binder | CD4 conv EC50 (nM), STAT5 phosphorylation [nM] | CD8 EC50 (nM), STAT5 phosphorylation [nM] | CD8 naïve EC50 (nM), STAT5 phosphorylation [nM] | Treg EC50 (nM), STAT5 phosphorylation [nM] |
| --- | --- | --- | --- | --- |
| B1 | 2290 | 10000 | 10000 | 0.43 |
| B2 | 2290 | 10000 | 10000 | 9.32 |
| B3 | – | 650 | – | 2.55 |
| B4 | 4000 | 10000 | 10000 | 5.94 |
| B5 | 7000 | 10000 | 10000 | 17 |
| B6 | 7000 | 10000 | 10000 | 10.7 |
| B7 | 2640 | 4270 | 4270 | 0.67 |
| B8 | 1000 | 4000 | 4000 | 1.02 |
| B9 | 4000 | 1000 | 1000 | 2.53 |
| B10 | 7000 | 10000 | 10000 | 94.9 |
